The target of the assay is full-length A82F variant of CYP102A1 with an N-terminal His6 tag (Bacillus megaterium) (UniProt P14779). Description: SEC-MALS. A general note: In gel filtration, larger molecules generally elute earlier.

As a reminder, the stoichiometry N is the number of molecules, sites or subunits per partner or assembly. Consider “full-length A82F variant of CYP102A1 with an N-terminal His6 tag (from UniProt P14779 1-1049) (enzyme)”, for which the stoichiometry N was determined as 2.

(Values after publication PMC8137598.)
